T1: human BCMA on cells (human, UniProt Q02223 1-184)
T1 construct: also called hBCMA; BCMA on NCI-H929, ARP-1, OPM-2, U266B1, MM.1S, RPMI-8226 cells
T1 sequence: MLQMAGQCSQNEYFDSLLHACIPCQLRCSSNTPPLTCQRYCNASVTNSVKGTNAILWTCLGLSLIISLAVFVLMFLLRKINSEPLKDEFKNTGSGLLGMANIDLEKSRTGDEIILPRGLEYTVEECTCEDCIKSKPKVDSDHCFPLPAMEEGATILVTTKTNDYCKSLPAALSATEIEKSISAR

T2: human BCMA-Fc (human, UniProt Q02223 1-54)
T2 construct: Bought from R&D Systems; also called huBCMA-Fc; not shown: Fc part not described
T2 sequence: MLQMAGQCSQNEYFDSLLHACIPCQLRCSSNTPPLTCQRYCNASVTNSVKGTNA

B1: 2213-A06 (antibody, V domains shown)
VH: EVQLVESGGGLVQPGGSLRLSCAASGFNISSYAIHWVRQAPGKGLEWVGVISPYGGYTEYADSVKGRFTISADTSKNTAYLQMNSLRAEDTAVYYCARDFYDRYSTYVLDYWGQGTLVTVSS
VL: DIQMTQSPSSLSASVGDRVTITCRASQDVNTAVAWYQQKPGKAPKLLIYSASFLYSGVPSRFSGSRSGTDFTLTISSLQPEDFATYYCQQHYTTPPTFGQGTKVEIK
notes: also called Antibody 23
B2: 2291-D07 (antibody, V domains shown)
VH: B1 VH with S30K, S31D, Y32T, A33Y, G55D, R98H
VL: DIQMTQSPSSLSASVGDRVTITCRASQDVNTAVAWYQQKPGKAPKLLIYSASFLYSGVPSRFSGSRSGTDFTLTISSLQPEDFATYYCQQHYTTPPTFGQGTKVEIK
notes: also called Antibody 26
B3: 2291-E06 (antibody, V domains shown)
VH: B1 VH with S31P, A33T, G49A, V50H, S52F, Y54S, E59D, S105A
VL: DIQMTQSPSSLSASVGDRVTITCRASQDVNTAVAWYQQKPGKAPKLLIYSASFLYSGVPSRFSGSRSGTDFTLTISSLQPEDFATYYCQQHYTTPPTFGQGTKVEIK
notes: also called Antibody 25
B4: 2291-A04 (antibody, V domains shown)
VH: B1 VH with A33G, V50F, G55D, D73G, Y101N, S105F
VL: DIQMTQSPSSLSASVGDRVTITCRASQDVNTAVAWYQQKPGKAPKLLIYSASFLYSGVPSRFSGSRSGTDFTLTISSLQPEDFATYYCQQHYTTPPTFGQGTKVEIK
notes: also called Antibody 28
B5: 2137-A05 (antibody, V domains shown)
VH: EVQLVESGGGLVQPGGSLRLSCAASGFNINNSYIHWVRQAPGKGLEWVGWIYPYSGYTNYADSVKGRFTISADTSKNTAYLQMNSLRAEDTAVYYCARDYGPWYGTGVLDYWGQGTLVTVSS
VL: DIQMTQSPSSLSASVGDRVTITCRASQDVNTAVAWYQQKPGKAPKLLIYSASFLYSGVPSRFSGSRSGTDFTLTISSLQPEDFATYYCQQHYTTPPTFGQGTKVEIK
notes: also called Antibody 14
B6: 2288-A03 (antibody, V domains shown)
VH: B5 VH with Y33W, S55I, Y57F, N59E, G101D, P102L, W103R, G105L
VL: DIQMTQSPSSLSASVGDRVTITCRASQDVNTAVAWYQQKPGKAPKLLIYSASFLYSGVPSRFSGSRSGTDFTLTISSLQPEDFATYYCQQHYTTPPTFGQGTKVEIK
notes: also called Antibody 15
B7: 2290-A02 (antibody, V domains shown)
VH: EVQLVESGGGLVQPGGSLRLSCAASGFNISTRWIHWVRQAPGKGLEWVGVITPSAGYTHYADSVKGRFTISAGTSKNTAYLQMNSLRAEDTAVYYCARDLGSRYWVGVFDYWGQGTLVTVSS
VL: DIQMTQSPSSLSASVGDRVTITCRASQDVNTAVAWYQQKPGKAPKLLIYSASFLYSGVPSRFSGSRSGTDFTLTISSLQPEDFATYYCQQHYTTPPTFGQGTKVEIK
notes: also called Antibody 22
B8: 2290-D02 (antibody, V domains shown)
VH: B7 VH with T31S, R32Y, V48M, S54A, H59Y, G73D, S102H
VL: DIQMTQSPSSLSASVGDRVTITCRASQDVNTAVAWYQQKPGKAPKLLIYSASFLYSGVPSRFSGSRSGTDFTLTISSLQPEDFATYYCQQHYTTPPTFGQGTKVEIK
notes: also called Antibody 18
B9: 2290-D05 (antibody, V domains shown)
VH: B7 VH with S30A, T31S, H59Y, G73D, S102Y, R103G, V108F, F109S
VL: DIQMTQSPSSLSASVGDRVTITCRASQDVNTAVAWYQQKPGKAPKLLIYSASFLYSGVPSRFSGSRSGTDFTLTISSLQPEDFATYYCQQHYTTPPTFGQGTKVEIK
notes: also called Antibody 20
B10: 2290-C08 (antibody, V domains shown)
VH: EVQLVESGGGLVQPGGSLRLSCAASGFNIQPYWIHWVRQAPGKGLEWVGVITPPSGYTYYADSVKGRFTISADTSKNTAYLQMNSLRAEDTAVYYCARDWGVGYWVGFSDYWGQGTLVTVSS
VL: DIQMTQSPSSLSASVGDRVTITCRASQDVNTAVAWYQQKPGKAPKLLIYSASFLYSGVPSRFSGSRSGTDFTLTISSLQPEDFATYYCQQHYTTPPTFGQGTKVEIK
notes: also called Antibody 21
B11: 2290-C07 (antibody, V domains shown)
VH: B10 VH with Q30T, P31Y, Y32D, P54F, S55D, R67H, W100M
VL: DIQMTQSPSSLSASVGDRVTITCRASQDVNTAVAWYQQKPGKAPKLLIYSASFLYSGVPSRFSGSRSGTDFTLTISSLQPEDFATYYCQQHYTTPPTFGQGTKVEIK
notes: also called Antibody 19
B12: 2290-G01 (antibody, V domains shown)
VH: B10 VH with Q30S, Y57F, M83V, W100L
VL: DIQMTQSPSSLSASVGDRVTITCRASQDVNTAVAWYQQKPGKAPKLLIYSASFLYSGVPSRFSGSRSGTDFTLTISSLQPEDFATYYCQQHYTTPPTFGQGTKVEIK
notes: also called Antibody 17

The values below come from US20220362394A1 (SUTRO BIOPHARMA, published 2022).

By Kd is commonly meant a measure of binding affinity in units of concentration. Usually EC50 stands for the concentration at which the effect is half-maximal. Read a low EC50 as a more potent agent. For orientation: koff means the rate constant with which the complex falls apart. One may read the kon as the rate constant with which the complex forms.

Positions count from the first letter of the chain named.

Sequence of cynomolgus BCMA on cells (Q02223 other isoform, or with tags, fused parts or gaps): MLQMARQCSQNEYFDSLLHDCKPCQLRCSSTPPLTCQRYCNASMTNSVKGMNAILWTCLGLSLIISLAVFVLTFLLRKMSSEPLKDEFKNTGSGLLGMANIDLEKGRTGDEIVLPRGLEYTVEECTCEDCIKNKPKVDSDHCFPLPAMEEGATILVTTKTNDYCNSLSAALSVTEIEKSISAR

The target in one assay is T1, human BCMA on cells. Kind of assay: FACS, NCI-H929 cells. On the procedure: (§1) Variants for which sufficient protein was purified in secondary screening were tested in a fluorescence-activated cell sorting (FACS) cell-binding assay. […] 6-12 point dilutions of anti-BCMA variants starting from concentrations of about 100-200 nM antibody were dispensed into each well using a BioMekFX (Beckman Coulter). Cells were then incubated on ice for 1 hr, washed with FACS buffer and incubated for 1 hr on ice with […] FACS buffer containing 2.5 μg/ml Alexa647-conjugated Goat Anti-Human IgG dispensed using BioMekFX (Beckman Coulter). Cells were then washed 2× with FACS buffer and fixed for 10 minutes in […] PBS with 2% paraformaldehyde (PFA) prior to fluorescence detection. Samples were acquired using a Beckton Dickinson LSRII FACS. Geometric Mean Fluorescence Intensity of BCMA antibody binding was analyzed using FlowJo® software (Tree Star, Inc.).
(Flow cytometry measures light scatter and fluorescence of single cells or particles in a stream.)
Molecule B1 came in with a Bmax of 2510 MFI and a Kd of 5.3 nM.
Molecule B2 yielded a Bmax of 28700 MFI and a Kd of 3.8 nM.
B3 showed a Bmax of 34400 MFI and a Kd of 5.8 nM.
Consider B4, for which the Bmax came out at 33900 MFI and the affinity, expressed as Kd, was 5 nM.
For B5, in that order: 2690 MFI and 10 nM.
For the molecule B6, the Bmax came out at 16300 MFI and the affinity, expressed as Kd, was 4.8 nM.
On to B7, for which the Bmax came out at 33600 MFI and binding was characterised by a dissociation constant (Kd) of 4.9 nM.
In the same order, the values of B8 are 33600 MFI and 19.2 nM.
As to B9, the Bmax was determined as 21800 MFI and the Kd stood at 4.6 nM.
B10 returned a Bmax of 37800 MFI and a Kd of 11 nM.

A further assay addresses T2, human BCMA-Fc. Briefly: ELISA, coated huBCMA-Fc.
As for B1, the Bmax is 3.68e+06 and a half-maximal effect (EC50) was put at 0.2 nM.
Consider B2, for which the Bmax came out at 4.08e+06 and the EC50 came to 0.03 nM.
Turning to B3, the Bmax came out at 4.11e+06 and the midpoint of the response, the EC50, lay at 0.21 nM.
On to B4, for which the Bmax was found to be 4.6e+06 and the EC50 stood at 0.23 nM.
In the same order, the values of B5 are 3.3e+06 and 0.52 nM.
Take B6: the Bmax worked out at 4.24e+06 and a half-maximal effect (EC50) was put at 0.56 nM.
Molecule B7 came in with a Bmax of 4.87e+06 and an EC50 of 0.4 nM.
For B11, the Bmax was determined as 4.12e+06 and the EC50 came out at 0.2 nM.
In the same order, the values of B12 are 4.83e+06 and 0.3 nM.
For B8, the Bmax was determined as 4.54e+06 and the EC50 was determined as 0.3 nM.
As to B9, the Bmax was determined as 3.94e+06 and the EC50 came to 0.3 nM.
On to B10, for which the Bmax amounted to 4.33e+06 and the response was half-maximal at 0.3 nM (EC50).

Another assay has as its target cynomolgus BCMA on cells (cynomolgus monkey, UniProt Q02223 1-184 (human entry)). Briefly: FACS, 293T-cynoBCMA cells. On the procedure: as §1
On to B1, for which the Bmax was determined as 3620 MFI and the Kd stood at 15.1 nM.
B2 displayed a Bmax of 67900 MFI and a Kd of 0.5 nM.
B3 yielded a Bmax of 68300 MFI and a Kd of 1.4 nM.
The molecule B4 showed a Bmax of 63800 MFI and a Kd of 1.2 nM.
The molecule B5 yielded a Bmax of 1910 MFI and a Kd of 18.3 nM.
For the molecule B6, the Bmax worked out at 46800 MFI and the Kd was determined as 1.8 nM.
In turn, B7 displayed a Bmax of 70300 MFI and a Kd of 2.3 nM.
For B11, in that order: 78100 MFI and 6.7 nM.
Molecule B12 yielded a Bmax of 77100 MFI and a Kd of 4.7 nM.
Molecule B8 displayed a Bmax of 75800 MFI and a Kd of 3.5 nM.
In the same order, the values of B9 are 57600 MFI and 1.7 nM.
Turning to B10, the Bmax turned out to be 71000 MFI and binding was put at a Kd of 2.3 nM.

A further assay addresses T3, cyno BCMA-Fc (cynomolgus monkey, UniProt Q02223 1-54 (human entry)).
T3 construct: Custom protein production; also called cynomolgus BCMA-Fc; not shown: Fc part not described
Briefly: ELISA, coated cynoBCMA-Fc. Background: An ELISA detects its analyte on a solid surface through an enzyme-linked reagent.
Molecule B1 had a Bmax of 2.23e+06 and an EC50 of 39 nM.
B2 showed a Bmax of 3.94e+06 and an EC50 of 0.03 nM.
The molecule B3 yielded a Bmax of 3.36e+06 and an EC50 of 0.13 nM.
Take B4: the Bmax was 4.23e+06 and the EC50 stood at 0.2 nM.
The molecule B5 gave a Bmax of 2.2e+06 and an EC50 of 419 nM.
B6 showed a Bmax of 3.02e+06 and an EC50 of 0.57 nM.
In the same order, the values of B7 are 4.47e+06 and 0.4 nM.
Turning to B11, the Bmax was 3.81e+06 and the EC50 is 0.2 nM.
In turn, B12 yielded a Bmax of 4.6e+06 and an EC50 of 0.3 nM.
B8: the Bmax was determined as 3.91e+06 and the EC50 was found to be 0.2 nM.
Take B9: the Bmax was 3.61e+06 and the response was half-maximal at 0.2 nM (EC50).
For B10, in that order: 4.14e+06 and 0.2 nM.

The target in a further assay is T2, human BCMA-Fc. Briefly: SPR Biacore, antibody captured, 25 C. On the procedure: Anti-Fab or anti-Fc polyclonal antibodies were immobilized onto a CM5 chip (GE Life Sciences) using amine coupling chemistry (from Amine Coupling Kit, GE Life Sciences). The immobilization steps were carried out at a flow rate of 25 μL/min in 1×HBS-EP+ buffer (GE Life Sciences; 10× Stock diluted before use). The sensor surfaces were activated for 7 min with a mixture of NHS (0.05 M) and EDC (0.2 M). The anti-Fab or anti-Fc antibodies were injected over all 4 flow cells at a concentration of 25 μg/ml in 10 mM sodium acetate, pH 4.5, for 7 min. Ethanolamine (1 M, pH 8.5) was injected for 7 min to block any remaining activated groups.
Off-rate and kinetic binding experiments were performed at 25° C. using 1×HBS-EP+ buffer. […] After capturing ligand (antibody) on the anti-Fab or anti-Fc surface, the analyte (human BCMA-Fc, cyno BCMA-Fc, or human BCMA from R&D Systems, custom protein production, or Sigma Aldrich, respectively) was bound for 180 seconds, followed by a 600 second dissociation phase at a flow rate of 50 μL/min. Between each ligand capture and analyte binding cycle, regeneration was carried out using 2 injections of 10 mM glycine pH 2.0 for 30 seconds at 30 μL/min, followed by a 30 second buffer wash step.
The data was fit with the Biacore T200 Evaluation software, using a 1-1 Langmuir binding model. KD (affinity, nM) was determined as a ratio of the kinetic rate constants calculated from the fits of the association and dissociation phases.
Regarding B1, the affinity, expressed as Kd, was 2.08 nM; the koff is 0.00283 s⁻¹; the kon amounted to 1.36e+06 M⁻¹ s⁻¹.
Take B2: the Kd is 0.948 nM, the koff was 0.000414 s⁻¹ and the kon was determined as 437000 M⁻¹ s⁻¹.
B3: the Kd was determined as 0.763 nM, the koff was 0.000357 s⁻¹ and the kon amounted to 468000 M⁻¹ s⁻¹.
B4 returned a Kd of 0.716 nM, an off-rate (koff) of 0.000349 s⁻¹ and a kon of 487000 M⁻¹ s⁻¹.
Turning to B5, the affinity, expressed as Kd, was 2.36 nM; the koff amounted to 0.00332 s⁻¹; the on-rate (kon) worked out at 1.41e+06 M⁻¹ s⁻¹.
Molecule B6 showed a Kd of 0.557 nM, a koff of 0.000516 s⁻¹ and a kon of 927000 M⁻¹ s⁻¹.
B7 returned a Kd of 0.567 nM, a koff of 0.000131 s⁻¹ and a kon of 231000 M⁻¹ s⁻¹.
In the same order, the values of B11 are 0.612 nM, 0.000221 s⁻¹ and 361000 M⁻¹ s⁻¹.
In turn, B12 yielded a Kd of 0.445 nM, a koff of 0.000318 s⁻¹ and a kon of 714000 M⁻¹ s⁻¹.
Molecule B8 gave a Kd of 0.949 nM, a koff of 0.000277 s⁻¹ and a kon of 292000 M⁻¹ s⁻¹.
The molecule B9 displayed a Kd of 0.937 nM, a koff of 0.000446 s⁻¹ and a kon of 476000 M⁻¹ s⁻¹.
B10 registered a Kd of 0.378 nM, a koff of 0.000252 s⁻¹ and a kon of 666000 M⁻¹ s⁻¹.
